Results on two molecules are retold here after patent publication US20250011823A1, “Method for preparing ultra-low molecular weight Dendrobium oligosaccharides by enzymatic hydrolysis and its application” (Zhejiang A & F University, priority 2022, published 2025).

The series is described as follows: ThDPS glycosidase activity determination (DNS method), hydrolysis of Dendrobium polysaccharides. The following applies: for enzymatic activity of expression product (hydrolysis of Dendrobium polysaccharides): crude supernatant of recombinant E. coli BL21 (DE3). The series is classed as biochemical. The method, then: Enzymatic activity definition: the amount of enzyme that can convert 1micromole of substrate per 1 minute at 37° C. is defined as one unit of enzymatic activity (U).
Enzymatic activity determination: ThDPS glycosidases can decompose Dendrobium polysaccharides into mannan oligosaccharides. The mannan oligosaccharide has reducibility and can undergo a certain chemical reaction with a DNS reagent under alkaline conditions to generate 3-amin-5-nitrosalicylic acid that is brownish-red under boiling conditions. The amount of reducing sugar generated can be measured with a spectrophotometer. The gradation of the color of the acid is related to the content of the reducing sugar.
Specific steps for enzymatic activity determination are as follows: a total reaction system is 2 mL, containing 1 mL of a Dendrobium polysaccharide solution with a concentration of 4 g/L, 200 μL of a phosphate buffer with a concentration of 200 mM, and 10 μL of an enzyme solution. 10 μL of distilled water is added to a control group, and water is replenished to a total volume of 2 mL for all reaction solutions. A mixed reaction solution is incubated at 37° C. for 30 min. After being taken out, the incubated mixed reaction solution is placed in a boiling water bath for 1 min to inactivate the enzymes. 2 mL of a DNS solution is added into each tube, and the tube is placed in the boiling water bath for 3 min, and then is rapidly cooled, and 1 mL of distilled water is added […]. The absorbance is measured at the wavelength of 540 nm to determine the enzymatic activity.
The recombinant bacteria constructed in step 1 were inoculated into a test tube containing 5 mL of LB medium (containing 100 ug/mL ampicillin), and underwent shake-flask culture at 37° C. and 200 r/min for 16 h. As a seed solution, the cultured bacterial solution was transferred into 100 mL of LB liquid medium (containing 100 ug/mL ampicillin) with an inoculum size of 1%, and underwent shake-flask culture at 37° C. and 200 rpm until OD600 was 0.6. 0.1 mM of IPTG was added to induce expression, and shaking culture was carried out for 24 h at 37° C. and 200 rpm. The obtained fermentation broth was centrifuged at 8000×g and 4° C. for 10 min, the supernatant was removed, and bacterial cells were collected. The bacterial cells were resuspended with 8 mL of 50 mM PBS of pH=7.0. After ultrasonic crushing, centrifugation was carried out for 10 min at 4° C. and 12000×g, precipitates were removed, the supernatant was collected for the hydrolysis reaction of Dendrobium polysaccharides, and hydrolysis products were detected by using a DNS method.
By taking Dendrobium polysaccharides as a substrate, the enzymatic property of ThDPS was characterized. • 1. 0.2 g, 0.4 g, 0.8 g, 1.2 g, 1.6 g, 2.0 g, 2.4 g, and 3 g of Dendrobium polysaccharides were (Mw>100000 Da) weighed and dissolved in 1 L of distilled water to prepare Dendrobium polysaccharide solutions, and then 20 μL of an enzyme solution was added and reacted at 37° C. for 30 min. The enzyme solution was an enzyme solution of ThDPS prepared in Example 2 diluted with deionized water to a concentration of 100 μg/mL. […] Optimum temperature determination: 10 g/L Dendrobium polysaccharides were formulated as a reaction substrate. To a reaction system was added 0.4 mL of Dendrobium polysaccharides with a final concentration of 2 g/L, 200 μL of a 500 mM Tris-HCl buffer, and 20 μl of an enzyme solution (providing 10 U of catalytic activity), and 20 μl of distilled water was added to a control group. The water was replenished to a total volume of 2 mL for all reaction solutions. After fair mixing, the mixtures were placed in water baths at 20° C., 30° C., 40° C., 50° C., […], 70° C., 80° C., and […] and incubated for 30 min. The enzyme solution was an enzyme solution of ThDPS prepared in Example 2 diluted with deionized water to a concentration of 100 μg/mL. […]

B1: THGH: T. halotolerans-derived glycosidase expressed in E. coli from the non-optimized gene SEQ ID NO.1 (protein)
chain: MRKRLTVAAATILALLASVFVFAQPANAATGFYVDNGRLYEAGGQEFVIRGVSHPHAWYAQETDSFAGIKSHGANTVRVVLSNGVRWTKNDAADVANVISLCKQNRLICMLEVHDTTGYGEQSGASTLDQAVDYWIEIQSALEGQEDYVLINIGNEPYGNDSATVADWASDTSAAIQRMRDAGFDHTLVVDAPNWGQDWSHTMRDNAGSVYTSDPTGNTVFSIHMYGVYEQGSTVTSYLEHFVNAGLPIMIGEFGHDHSDGNPDEDTIMAEAERLGLGYIGWSWSGNGGGVEYLDMVNNFDADSLTSWGQRIFYGANGISSTAEEATVYGGGAPTDPPTDPPAEGDCSADYTTVGSWGGGFQGEVTVTAGDSAISNWTVSWTFPGGQSVSHGWNASFGGGSPVTASNAPYNGQLGAGQSTTFGFIGSGSAPGSLTLTCTTD
modifications: Thermobifida halotolerans
As to B1, for the setting “DNS method”, the “enzymatic activity of expression product (hydrolysis of Dendrobium polysaccharides)” value came out at 68 U/OD bacterial cells. The “hydrolysis activity on the Dendrobium polysaccharides (in words)” value (expression products of recombinant E. coli, DNS method, FIG. 1) is reported as “significant hydrolysis activity”.

B2: ThDPS: T. halotolerans-derived glycosidase (SEQ ID NO.3) expressed in E. coli from codon-optimized gene SEQ ID NO.2, with 6× His-tag (protein)
chain: MRKRLTVAAATILALLASVFVFAQPANAATGFYVDNGRLYEAGGQEFVIRGVSHPHAWYAQETDSFAGIKSHGANTVRVVLSNGVRWTKNDAADVANVISLCKQNRLICMLEVHDTTGYGEQSGASTLDQAVDYWIEIQSALEGQEDYVLINIGNEPYGNDSATVADWASDTSAAIQRMRDAGFDHTLVVDAPNWGQDWSHTMRDNAGSVYTSDPTGNTVFSIHMYGVYEQGSTVTSYLEHFVNAGLPIMIGEFGHDHSDGNPDEDTIMAEAERLGLGYIGWSWSGNGGGVEYLDMVNNFDADSLTSWGQRIFYGANGISSTAEEATVYGGGAPTDPPTDPPAEGDCSADYTTVGSWGGGFQGEVTVTAGDSAISNWTVSWTFPGGQSVSHGWNASFGGGSPVTASNAPYNGQLGAGQSTTFGFIGSGSAPGSLTLTCTTD
modifications: 6xHis tag; Thermobifida halotolerans
For the molecule B2, the “pH of maximum activity” value (50 mM phosphate buffer, 37° C., 30 min) came out at 7.0. Further, for the setting “2 g/L Dendrobium polysaccharides, Tris-HCl buffer, 30 min, 20-90° C.”, the optimal reaction temperature came to 60 °C. Further, the “substrate inhibition (in words)” value (Dendrobium polysaccharide 0.2 g/L to 3 g/L) is “no significant substrate inhibition”. The “increase of expression enzymatic activity level versus THGH without codon optimization” value (codon-optimized sequence, E. coli BL21 (DE3)) was determined as 2.75 times. For the setting “DNS method”, the “enzymatic activity of expression product (hydrolysis of Dendrobium polysaccharides)” value is listed as 187 U/OD bacterial cells. Besides, the “relative activity (percentage of maximum activity)” value runs as follows: (range of pH 6.0 to 10.0) “more than 90%”; (temperature between 40° C. and 60° C.) not below 85%. The same molecule yielded a specific enzymatic activity (substrate concentration 2.4 g/L, 37° C., 30 min) of 5100 U/mg.
